According to US20140341843A1 (ELEVEN BIOTHERAPEUTICS, published 2014):

Target: T1, soluble recombinant human IL-1RI (corresponding to the extracellular domain of IL-1RI) (human, UniProt P14778 18-336)
T1 construct: extracellular domain; also called interleukin-1 receptor I; IL-1R1 receptor
T1 sequence (looked up): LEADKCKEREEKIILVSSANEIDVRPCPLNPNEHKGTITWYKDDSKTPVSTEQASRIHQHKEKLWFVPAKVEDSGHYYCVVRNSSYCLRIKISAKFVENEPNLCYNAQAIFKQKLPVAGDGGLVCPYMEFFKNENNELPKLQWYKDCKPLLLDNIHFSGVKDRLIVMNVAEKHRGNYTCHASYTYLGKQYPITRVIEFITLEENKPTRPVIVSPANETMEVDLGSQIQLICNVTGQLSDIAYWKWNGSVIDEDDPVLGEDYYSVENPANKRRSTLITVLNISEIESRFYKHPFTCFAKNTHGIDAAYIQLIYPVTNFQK
Assay: Kd to the IL-1R1 receptor as listed in Table 15; method not restated, values are the SPR values of Table 7 rounded

Kd: 0.64 nM
B1: P02 (designed binder)
chain: APVRSLAFRIWDVNQKTFYLRNNQLVAGYLQGPNVNLEEKIDVSFVQGEESNDKIPVALGIHGGKMCLSCVKSGDETRLQLEAVDPKNYPKKKMEKRFVFNKIEINNKLSFESAACPGWFLCTAMEADQPVSLTNMPDEGVMVTKFYMQFVSS
notes: IL-1β/IL-1Ra chimera expressed in E. coli; also called P02 domain; chimeric cytokine domain P02
